{
  "source": "paper PMC3413138",
  "binders": {"B1": {"name": "COX-2 3'-UTR U-3 (ssRNA)", "RNA": "GCGGAGAAAGGAGUCAUACUUGUGAAGACUUUUAUGUCACUACUCUAAAGAUUUUGCUGUUGCUGUUAAGUUUGGAAAACAGUUUUUAUUCUGUUUUAUAAACCAGAGAGAAAUGAGUUUUGACGUCUUUUUACUUGAAUUUCAACUUAUAUUAUAAGGACGAAAGUAAAGAUGUUUGAAUACUUAAACACUAUCACAAGAUGCCAA"}, "B2": {"name": "COX-2 3'-UTR U-4 (ssRNA)", "RNA": "UGUAACAGAAGUCAGUACUCCUGUUGCGGAGAAAGGAGUCAUACUUGUGAAGACUUUUAUGUCACUACUCUAAAGAUUUUGCUGUUGCUGUUAAGUUUGG"}, "B3": {"name": "negative control NC RNA (ssRNA)", "RNA": "CAUAGCUCAUUAUACCCUCCUGGGCUCAAGCAAUCCCCCUAACUCUGCCUCCCCAGUAGCUAGGACCACAGGCAUACACC"}, "B4": {"name": "COX-2 3'-UTR U-1 (ssRNA)", "RNA": "AAGUCUAAUGAUCAUAUUUAUUUAUUUAUAUGAACCAUGUCUAUUAAUUUAAUUAUUUAAUAAUAUUUAUAUUAAACUCCUUAUGUUACUUAACAUCUUCUGUAACAGAAGUCAGUACUCCUGUUGCGGAGAAAGGAGUCAUACUUGUGA"}, "B5": {"name": "COX-2 3'-UTR U-2 (ssRNA)", "RNA": "AAGUCUAAUGAUCAUAUUUAUUUAUUUAUAUGAACCAUGUCUAUUAAUUUAAUUAUUUAAUAAUAUUUAUAUUAAACUCCUUAUGUUACUUAACAUCUUCUGUAACAGAAGUCAGUACUCCUGUUGCGGAGAAAGGAGUCAUACUUGUGAAGACUUUUAUGUCACUACUCUAAAGAUUUUGCUGUUGC"}},
  "experiment_in_all_cases": "SPR",
  "key": {"[1]": {"molecular_target": "T1, beta-catenin FL (UniProt P35222 1-781)", "T1 sequence (P35222 whole entry)": "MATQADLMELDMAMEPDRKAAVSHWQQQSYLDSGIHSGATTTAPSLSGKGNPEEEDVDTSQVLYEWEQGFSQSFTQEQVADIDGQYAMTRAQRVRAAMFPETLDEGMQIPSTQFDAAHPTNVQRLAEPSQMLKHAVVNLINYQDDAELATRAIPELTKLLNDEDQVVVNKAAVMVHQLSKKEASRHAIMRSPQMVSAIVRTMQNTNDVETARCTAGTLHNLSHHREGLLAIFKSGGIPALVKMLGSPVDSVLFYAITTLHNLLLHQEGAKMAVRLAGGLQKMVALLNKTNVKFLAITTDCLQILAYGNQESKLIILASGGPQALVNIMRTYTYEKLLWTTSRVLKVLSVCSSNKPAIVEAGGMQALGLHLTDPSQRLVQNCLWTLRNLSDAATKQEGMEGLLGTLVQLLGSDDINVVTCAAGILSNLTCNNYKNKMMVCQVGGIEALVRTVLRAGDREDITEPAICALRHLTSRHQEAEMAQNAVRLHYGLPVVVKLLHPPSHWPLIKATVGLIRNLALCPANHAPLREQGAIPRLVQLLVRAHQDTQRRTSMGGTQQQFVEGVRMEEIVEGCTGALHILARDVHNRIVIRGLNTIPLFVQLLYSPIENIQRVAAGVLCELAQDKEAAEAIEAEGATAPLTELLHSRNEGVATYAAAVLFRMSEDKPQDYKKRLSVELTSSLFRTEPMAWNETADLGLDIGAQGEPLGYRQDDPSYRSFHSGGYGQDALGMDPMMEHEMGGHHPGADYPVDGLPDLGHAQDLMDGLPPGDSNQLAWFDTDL"}, "[2]": {"molecular_target": "HuR (UniProt Q15717 1-326)", "sequence (Q15717 whole entry)": "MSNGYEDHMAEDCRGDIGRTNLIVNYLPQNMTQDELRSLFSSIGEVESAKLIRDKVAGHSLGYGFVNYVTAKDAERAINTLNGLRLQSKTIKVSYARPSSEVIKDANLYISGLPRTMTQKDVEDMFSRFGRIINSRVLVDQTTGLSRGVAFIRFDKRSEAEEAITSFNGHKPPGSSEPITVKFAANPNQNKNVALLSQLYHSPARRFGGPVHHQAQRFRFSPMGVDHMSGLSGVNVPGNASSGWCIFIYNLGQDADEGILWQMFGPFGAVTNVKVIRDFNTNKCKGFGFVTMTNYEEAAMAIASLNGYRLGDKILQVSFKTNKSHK"}, "[3]": {"molecular_target": "T1, beta-catenin FL", "remark": "listed apart in the source"}, "[4]": {"molecular_target": "T1, beta-catenin FL", "remark": "listed apart in the source"}},
  "note": "Like-named read-outs stand apart in the source and are kept apart here.",
  "data": [
    {"binder": "B1", "values": [
      {"measurement": "Kd", "setting": "[1]", "value": 2600, "unit": "nM"}
    ]},
    {"binder": "B2", "values": [
      {"measurement": "Kd", "setting": "[2]", "value": 3510, "unit": "nM"},
      {"measurement": "Kd", "setting": "[3]", "value": 131, "unit": "nM"}
    ]},
    {"binder": "B3", "values": [
      {"measurement": "binding result", "setting": "[4]", "value": "no binding"}
    ]},
    {"binder": "B4", "values": [
      {"measurement": "Kd", "setting": "[2]", "value": 33.4, "unit": "nM"}
    ]},
    {"binder": "B5", "values": [
      {"measurement": "Kd", "setting": "[2]", "value": 81.3, "unit": "nM"},
      {"measurement": "Kd", "setting": "[1]", "value": 158, "unit": "nM"}
    ]}
  ]
}
